Read-outs that look alike come from different tables or passages of the source.
Experiments:
[1] = biological target: T1, panel of four distinct ZIKV strains (H/PF/2013; MR766, MRS-OPY and PV 10552); test: cell-based or functional assay
[2] = biological target: T1, panel of four distinct ZIKV strains …; test: cell-based or functional assay; remark: listed apart in the source

B1: ZKA190 (antibody, V domains shown)
VH: QVQLVESGGGVVQPGRSLRLSCAASGFTFSKYGMHWVRQAPGKGLEWVAVISYEGSNKYYADSVKGRFTISRDNSKNTLYLQMNSLRAEDTAVYYCAKSGTQYYDTTGYEYRGLEYFGYWGQGTLVTVSS
VL: EIVLTQSPGTLSLSPGERATLSCRASQSVSSSYLAWYQQKRGQAPRLLIYDASSRATGIPDRFSGSGSGTDFTLTISRLEPEDFAVYYCQQYGRSRWTFGQGTKVEIK
[1]
  IC50, neutralization of four ZIKV strains on Vero cells (flow cytometry): 0.004 to 0.05 nM
[2]
  IC50, neutralization of four ZIKV strains on Vero cells (flow cytometry): 0.6 to 8 ng/mL

Source: US20200317755A1
